Where two headings read alike, the source gives them in different places.
How the values were obtained:
alpha-cobratoxin [1] = target: T1, alpha-cobratoxin (Naja kaouthia, UniProt P01391); assay: BLI
T1 chain: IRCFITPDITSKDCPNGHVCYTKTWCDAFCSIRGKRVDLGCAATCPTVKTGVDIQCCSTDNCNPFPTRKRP

alpha-cobratoxin [2] = target: T1, alpha-cobratoxin; assay: BLI
alpha-cobratoxin [3] = target: T1, alpha-cobratoxin; assay: BLI
alpha-bungarotoxin [4] = target: T2, alpha-bungarotoxin (Bungarus multicinctus, UniProt P60615); assay: BLI
alpha-cobratoxin [5] = target: T1, alpha-cobratoxin; assay: SPR
alpha-cobratoxin [6] = target: T1, alpha-cobratoxin; assay: SPR
alpha-bungarotoxin [7] = target: T2, alpha-bungarotoxin; assay: BLI; remark: listed apart in the source
alpha-cobratoxin [8] = target: T1, alpha-cobratoxin; assay: BLI

T2 sequence (P60615 22-95): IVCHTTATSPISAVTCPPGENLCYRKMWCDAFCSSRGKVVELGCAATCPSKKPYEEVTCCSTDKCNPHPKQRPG

B1: 2554_01_D11 (antibody, V domains shown)
VH: QVQLVQSGAEVKKPGSSVKVSCKASGGTFSSYAISWVRQAPGQGLEWMGGIIPIFGTANYAQKFQGRVTITADESTSTAYMELRSLRSDDTAVYYCARDNLGYCSGGSCYSDYYYYYMDVWGQGTLVTVSS
VL: SNFMLTQPRSVSESPGKTVTISCTRSSGSIGSDYVHWYQQRPGSSPTTVIYEDNQRPSGVPDRFSGSIDSSSNSASLTISGLKTEDEADYYCQSYDRSNHEVVFGGGTKLTVL
Kd (alpha-cobratoxin [1]): 2.91 nM
Kd (alpha-cobratoxin [2]): 2.9 nM
koff (alpha-cobratoxin [3]): 0.000327 s⁻¹
koff (alpha-bungarotoxin [4]): 0.00388 s⁻¹
Kd (alpha-cobratoxin [5]): 2.3 nM
Kd (alpha-cobratoxin [6]): 10.4 nM
Kd (alpha-bungarotoxin [7]): 122 nM
koff (alpha-cobratoxin [8]): 0.000396 s⁻¹

Reference: patent US20260317413 (published 2026)
